Publication PMC3351183 (Nucleic Acids Research, 2012)

B1: GB1_HP0315 (HP0315, a VapD protein from Helicobacter pylori, fused with the immunoglobulin-binding domain of streptococcal protein G) (natural protein, Helicobacter pylori 26695)
chain: MYALAFDLKIEILKKEYGEPYNKAYDDLRQELELLGFEWTQGSVYVNYSKENTLAQVYKAINKLSQIEWFKKSVRDIRAFKVEDFSDFTEIVKS
B2: SeMet-substituted GB1_HP0315 (natural protein, Helicobacter pylori 26695)
chain: B1 chain
modifications: selenomethionine in place of methionine (first methionine residue of GB1 and the methionine residue of HP0315)

What was measured:
[1] = biological target: the molecule itself; assay: SEC
[2] = biological target: the molecule itself; assay: crystal structure

| Protein | stoichiometry N [1] | binding result [2] |
| --- | --- | --- |
| B1 | 2 | – |
| B2 | – | binds |
